In article doi:10.1101/2024.09.12.612615:

Biological target: Asp64 (UniProt position 64, EGCPTDSIKVA)
Assay: kinetics
Conditions: 28 °C; reduced [4Fe-4S] cluster undergoing air oxidation

Substance: [4Fe-4S] ferredoxin (BtFd) (Bacillus thermoproteolyticus)
- pKa: between a pH of 6.0 to 7.0
